Measured values published in patent US20180057604A1 (Genentech, published 2018).
Where two headings read alike, the source gives them in different places.

T1: cyno TfR extracellular domain (analogous construct to human TfR ecd) (cynomolgus monkey, UniProt Q5RDH6 87-760 (Pongo abelii entry))
T1 construct: also called cynoTfR ecd
T1 chain: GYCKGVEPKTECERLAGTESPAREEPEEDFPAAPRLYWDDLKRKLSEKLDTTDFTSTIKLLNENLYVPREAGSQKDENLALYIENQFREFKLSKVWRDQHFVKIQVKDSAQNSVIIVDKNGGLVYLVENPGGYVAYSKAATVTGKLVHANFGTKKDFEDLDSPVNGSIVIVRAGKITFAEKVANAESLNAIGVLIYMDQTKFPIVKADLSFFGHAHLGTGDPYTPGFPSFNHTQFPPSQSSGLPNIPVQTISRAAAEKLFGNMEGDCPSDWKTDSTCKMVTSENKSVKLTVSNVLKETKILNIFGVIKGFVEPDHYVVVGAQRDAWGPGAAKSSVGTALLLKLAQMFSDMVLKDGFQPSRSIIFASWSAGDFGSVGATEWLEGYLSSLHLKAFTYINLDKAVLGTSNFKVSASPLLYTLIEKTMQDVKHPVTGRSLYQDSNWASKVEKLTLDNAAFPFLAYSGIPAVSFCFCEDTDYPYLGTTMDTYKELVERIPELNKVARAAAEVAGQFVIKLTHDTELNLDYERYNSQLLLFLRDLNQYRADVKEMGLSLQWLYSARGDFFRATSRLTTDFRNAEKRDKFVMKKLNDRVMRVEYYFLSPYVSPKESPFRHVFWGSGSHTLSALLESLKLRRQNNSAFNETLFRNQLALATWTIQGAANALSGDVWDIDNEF


Columns and labels:
[1] = target: T2, BACE1 in primary mouse cortical neurons (mouse, UniProt P56818 46-501); assay: cell-based or functional assay
[2] = target: T3, murine BACE1 ECD; assay: Octet, pH 7.5;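 further: antibodies captured on anti-human capture sensor tips, dissociation monitored in PBS with BSA, Kd obtained from kinetic fit to a one-to-one binding model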
T3 construct: analyte of the Octet assay (200 nM) and enzyme of the first short substrate assay
Protocol: (§1) Anti-BACE1 antibodies were loaded onto anti-human capture (AHC) sensors (tips) followed by 60 seconds baseline in assay buffer. […] Tips were transferred to assay buffer for 5 minutes, 30 minutes, or 120 minutes depending on the off-rate, for off-rate measurement. Assay buffer was either PBS+0.1% BSA, pH 7.5; or PBS+0.1% BSA, pH 5.0. Kinetics were analyzed using a 1:1 binding model.

[3] = target: T4, human BACE1 ECD; assay: Octet, pH 7.5;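 further: antibodies captured on anti-human capture sensor tips, dissociation monitored in PBS with BSA, Kd obtained from kinetic fit to a one-to-one binding model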
T4 construct: analyte of the Octet assay (200 nM) and enzyme of the first short substrate assay; also called human BACE1 extracellular domain
Protocol: as §1

[4] = target: T5, human BACE1 (R&D Systems) (human, UniProt P56817); assay: SPR (Biacore)
T5 construct: recombinant, commercial (R&D Systems)
Protocol: Binding affinities of certain anti-BACE1 IgGs were measured by surface plasmon resonance (SRP) using a BIAcore™-T100 instrument. […] Association rates (kon) and dissociation rates (koff) were calculated using a simple one-to-one Langmuir binding model (BIAcore Evaluation Software version 3.2). The equilibrium dissociation constant (KD) was calculated as the ratio koff/kon.

[5] = target: T3, murine BACE1 ECD; assay: Octet, pH 5.0;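 further: antibodies captured on anti-human capture sensor tips, dissociation monitored in PBS with BSA buffer, kinetics fitted with a one-to-one binding model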
Protocol: as §1

[6] = target: T4, human BACE1 ECD; assay: Octet, pH 5.0;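 further: antibodies captured on anti-human capture sensor tips, dissociation monitored in PBS with BSA buffer, kinetics fitted with a one-to-one binding model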
Protocol: as §1

[7] = target: T2, BACE1 in primary mouse cortical neurons; assay: cell-based or functional assay; remark: listed apart in the source
[8] = target: T6, human TfR extracellular domain with N-terminal His tag (human, UniProt P02786 89-760); assay: ELISA, IgG
T6 construct: Biotinylated in some assays; also called huTfR; HuTfR
Protocol: (§2) Affinity variants were generated by making individual alanine substitutions in CDR-L3 or CDR-H3 using standard techniques. These variants were screened as IgG by ELISA and SPR to identify positions important for binding to human and cyno TfR; the monovalent affinity of selected variants as Fab was also determined. […] Plates were washed with PBS/0.05% Tween 20 and blocked using Superblock blocking buffer in PBS (Thermo Scientific, Hudson, N.H.). Supernatants containing expressed IgG were diluted serially 1:5 and added to the plate for 1 h. […] Plates were washed with PBS/0.05% Tween 20 and 1:1000 diluted HRP-Goat-anti kappa (Southern Biotech) was added the plate and incubated for 1 h at room temperature. Plates were washed with PBS/0.05% Tween 20 and detected using TMB substrate (BioFX Laboratories, Owings Mills).

[9] = target: T1, cyno TfR extracellular domain …; assay: ELISA, IgG
Protocol: as §2

T4 sequence (single chain, as listed by the source limits assumed): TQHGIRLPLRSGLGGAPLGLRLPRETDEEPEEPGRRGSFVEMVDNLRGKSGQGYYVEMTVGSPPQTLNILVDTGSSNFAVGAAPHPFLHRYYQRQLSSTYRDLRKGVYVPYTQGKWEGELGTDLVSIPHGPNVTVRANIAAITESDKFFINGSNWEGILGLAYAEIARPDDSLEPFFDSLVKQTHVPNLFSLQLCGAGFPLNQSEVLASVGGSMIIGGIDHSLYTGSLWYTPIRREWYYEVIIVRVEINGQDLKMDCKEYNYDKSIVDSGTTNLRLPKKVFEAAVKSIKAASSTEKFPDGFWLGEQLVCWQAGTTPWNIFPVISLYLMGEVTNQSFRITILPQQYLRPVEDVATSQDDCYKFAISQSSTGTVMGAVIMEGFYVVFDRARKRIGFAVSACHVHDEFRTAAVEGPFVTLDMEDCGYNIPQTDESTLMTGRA
T5 sequence (P56817 22-457 limits assumed): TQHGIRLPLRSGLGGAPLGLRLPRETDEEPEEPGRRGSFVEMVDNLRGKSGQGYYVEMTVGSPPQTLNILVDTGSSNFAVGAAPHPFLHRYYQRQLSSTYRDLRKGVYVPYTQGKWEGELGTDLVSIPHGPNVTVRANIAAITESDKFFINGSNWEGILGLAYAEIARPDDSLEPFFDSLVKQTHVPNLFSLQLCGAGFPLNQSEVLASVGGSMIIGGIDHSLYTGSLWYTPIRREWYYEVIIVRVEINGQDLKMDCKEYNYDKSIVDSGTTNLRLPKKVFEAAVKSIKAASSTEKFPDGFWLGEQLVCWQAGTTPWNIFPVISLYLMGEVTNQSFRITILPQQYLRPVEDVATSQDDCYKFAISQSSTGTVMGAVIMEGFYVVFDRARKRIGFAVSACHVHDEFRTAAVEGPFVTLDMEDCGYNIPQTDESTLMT
T6 sequence (P02786 89-760 G142S): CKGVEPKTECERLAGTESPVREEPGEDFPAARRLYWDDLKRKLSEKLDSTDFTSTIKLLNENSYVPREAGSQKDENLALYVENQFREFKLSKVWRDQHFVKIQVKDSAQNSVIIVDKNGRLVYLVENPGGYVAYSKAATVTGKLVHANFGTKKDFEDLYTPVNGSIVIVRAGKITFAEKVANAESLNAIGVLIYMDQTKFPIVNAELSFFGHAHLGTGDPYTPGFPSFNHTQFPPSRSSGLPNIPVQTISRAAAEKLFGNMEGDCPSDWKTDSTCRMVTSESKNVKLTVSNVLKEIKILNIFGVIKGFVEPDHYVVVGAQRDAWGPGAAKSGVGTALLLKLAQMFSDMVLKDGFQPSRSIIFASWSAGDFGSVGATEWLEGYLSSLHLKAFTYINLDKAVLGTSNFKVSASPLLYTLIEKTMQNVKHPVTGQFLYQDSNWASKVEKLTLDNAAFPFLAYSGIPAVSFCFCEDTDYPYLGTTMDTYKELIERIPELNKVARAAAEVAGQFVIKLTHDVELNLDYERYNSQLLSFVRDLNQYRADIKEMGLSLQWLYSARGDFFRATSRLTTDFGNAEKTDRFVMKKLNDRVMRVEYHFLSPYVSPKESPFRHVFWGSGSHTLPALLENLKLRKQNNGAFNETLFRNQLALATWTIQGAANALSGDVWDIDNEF
T2 sequence (P56818 46-501): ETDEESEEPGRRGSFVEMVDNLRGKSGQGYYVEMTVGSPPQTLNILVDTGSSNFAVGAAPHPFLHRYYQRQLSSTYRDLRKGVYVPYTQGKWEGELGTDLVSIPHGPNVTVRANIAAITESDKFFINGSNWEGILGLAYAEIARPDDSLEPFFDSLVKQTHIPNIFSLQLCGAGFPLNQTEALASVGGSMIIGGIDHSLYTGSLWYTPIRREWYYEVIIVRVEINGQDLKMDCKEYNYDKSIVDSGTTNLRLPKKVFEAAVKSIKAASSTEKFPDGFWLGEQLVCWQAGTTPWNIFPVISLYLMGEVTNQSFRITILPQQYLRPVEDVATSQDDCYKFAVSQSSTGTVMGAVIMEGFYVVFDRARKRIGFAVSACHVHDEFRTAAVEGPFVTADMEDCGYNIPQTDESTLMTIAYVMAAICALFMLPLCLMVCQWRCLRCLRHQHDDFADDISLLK
T3 sequence (single chain, as listed by the source limits assumed): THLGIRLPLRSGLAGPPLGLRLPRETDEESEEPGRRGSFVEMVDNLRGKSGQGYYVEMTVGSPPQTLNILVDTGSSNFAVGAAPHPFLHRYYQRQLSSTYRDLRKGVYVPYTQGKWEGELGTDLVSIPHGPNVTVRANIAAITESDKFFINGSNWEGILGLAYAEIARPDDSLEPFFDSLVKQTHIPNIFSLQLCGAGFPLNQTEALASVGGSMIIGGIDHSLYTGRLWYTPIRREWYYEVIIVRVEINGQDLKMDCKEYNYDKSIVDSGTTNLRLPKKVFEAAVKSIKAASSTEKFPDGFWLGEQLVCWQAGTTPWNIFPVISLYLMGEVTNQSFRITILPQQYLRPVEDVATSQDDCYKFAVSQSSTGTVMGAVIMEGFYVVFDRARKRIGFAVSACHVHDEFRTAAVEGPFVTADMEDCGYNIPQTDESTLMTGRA

IC50, Abeta x-40 in mouse cortical neurons [1]	maximal % inhibition of Abeta x-40 [1]	Kd [2]	Kd [3]	Kd [4]	Kd [5]	Kd [6]	IC50, Abeta x-40 in mouse cortical neurons [7]	maximal % inhibition of Abeta x-40 [7]	EC50 [8]	EC50 [9]	Binder
1.27 nM	71%	< 0.49 nM	< 0.48 nM	2.68 nM	< 0.37 nM	< 0.34 nM	–	–	–	–	6275 (antibody, V domains shown, anti-BACE1 IgG) VH: QVQLVQSGAEVKKPGSSVKVSCKASGGTFRGYAISWVRQAPGQGLEWMGNIIPGFGTANYAQKFQGRVTITADESTSTAYMELSSLRSEDTAVYYCARSGGTKYGMLDVWGQGTMVTVSS VL: EIVMTQSPATLSVSPGERATLSCRASQSVSSNLAWYQQKPGQAPRLLIYGASTRATGIPARFSGSGSGTEFTLTISSLQSEDFAVYYCQQLFLWPPRTFGGGTKVEIK
–	–	< 0.41 nM	< 0.41 nM	5.82 nM	< 0.46 nM	< 0.28 nM	10.4 nM	70%	–	–	6299 (antibody, V domains shown, anti-BACE1 IgG) VH: QVQLVQSGAEVKKPGSSVKVSCKASGGTLSGYAISWVRQAPGQGLEWMGNIIPGFGTANYAQKSQGRVTITADESTSTAYMELSSLRSEDTAVYYCARSGGTRYGMLDVWGQGTMVTVSS VL: EIVMTQSPATLSVSPGERATLSCRASQSVGSNLAWYQQKPGQAPRLLIYGASTRATGIPARFSGSGSGTEFTLTISSLQSEDFAVYYCQQSYLWPPRTFGGGTKVEIK
6.23 nM	71%	< 0.46 nM	< 0.45 nM	2.11 nM	< 0.43 nM	< 0.36 nM	–	–	–	–	6279 (antibody, V domains shown, anti-BACE1 IgG) VH: QVQLVQSGAEVKKPGSSVKVSCKASGGTFRGYAISWVRQAPGQGLEWMGNIIPGFGTANYAQKFQGRVTITADESTSTAYMELSSLRSEDTAVYYCARSGGTKYGMLDVWGQGTMVTVSS VL: EIVMTQSPATLSVSPGERATLSCRASQSVSSNLAWYQQKPGQAPRLLIYGASTRATGIPARFSGSGSGTEFTLTISSLQSEDFAVYYCQQLLLWPPRTFGGGTKVEIK
–	–	–	–	–	–	–	–	–	0.013 µg/mL	0.024 µg/mL	H90A (antibody, V domains shown, also called 15G11.v5 H90A (CDR-L3) IgG) VH: EVQLVQSGAEVKKPGASVKVSCKASGYTFTSYWMHWVRQAPGQRLEWIGEINPTNGRTNYIEKFKSRATLTVDKSASTAYMELSSLRSEDTAVYYCARGTRAYHYWGQGTMVTVSS VL: DIQMTQSPSSLSASVGDRVTITCRASDNLYSNLAWYQQKPGKSPKLLVYDATNLADGVPSRFSGSGSGTDYTLTISSLQPEDFATYYCQAFWGTPLTFGQGTKVEIK
–	–	–	–	–	–	–	–	–	0.0134 µg/mL	0.0157 µg/mL	T97A (antibody, V domains shown, also called 15G11.v5 T97A (CDR-L3) IgG) VH: EVQLVQSGAEVKKPGASVKVSCKASGYTFTSYWMHWVRQAPGQRLEWIGEINPTNGRTNYIEKFKSRATLTVDKSASTAYMELSSLRSEDTAVYYCARGTRAYHYWGQGTMVTVSS VL: DIQMTQSPSSLSASVGDRVTITCRASDNLYSNLAWYQQKPGKSPKLLVYDATNLADGVPSRFSGSGSGTDYTLTISSLQPEDFATYYCQHFWGTPLAFGQGTKVEIK
–	–	–	–	–	–	–	–	–	0.0099 µg/mL	0.018 µg/mL	L96A (antibody, V domains shown, also called 15G11.v5 L96A (CDR-L3) IgG) VH: EVQLVQSGAEVKKPGASVKVSCKASGYTFTSYWMHWVRQAPGQRLEWIGEINPTNGRTNYIEKFKSRATLTVDKSASTAYMELSSLRSEDTAVYYCARGTRAYHYWGQGTMVTVSS VL: DIQMTQSPSSLSASVGDRVTITCRASDNLYSNLAWYQQKPGKSPKLLVYDATNLADGVPSRFSGSGSGTDYTLTISSLQPEDFATYYCQHFWGTPATFGQGTKVEIK
–	–	–	–	–	–	–	–	–	0.0168 µg/mL	0.0293 µg/mL	T94A (antibody, V domains shown, also called 15G11.v5 T94A (CDR-L3) IgG) VH: EVQLVQSGAEVKKPGASVKVSCKASGYTFTSYWMHWVRQAPGQRLEWIGEINPTNGRTNYIEKFKSRATLTVDKSASTAYMELSSLRSEDTAVYYCARGTRAYHYWGQGTMVTVSS VL: DIQMTQSPSSLSASVGDRVTITCRASDNLYSNLAWYQQKPGKSPKLLVYDATNLADGVPSRFSGSGSGTDYTLTISSLQPEDFATYYCQHFWGAPLTFGQGTKVEIK
–	–	–	–	–	–	–	–	–	0.0142 µg/mL	0.0216 µg/mL	H101A (antibody, V domains shown, also called 15G11.v5 H101A (CDR-H3) IgG; copies: 2 + 2) VH: EVQLVQSGAEVKKPGASVKVSCKASGYTFTSYWMHWVRQAPGQRLEWIGEINPTNGRTNYIEKFKSRATLTVDKSASTAYMELSSLRSEDTAVYYCARGTRAYAYWGQGTMVTVSS VL: DIQMTQSPSSLSASVGDRVTITCRASDNLYSNLAWYQQKPGKSPKLLVYDATNLADGVPSRFSGSGSGTDYTLTISSLQPEDFATYYCQHFWGTPLTFGQGTKVEIK
11 nM	67%	< 0.23 nM	< 0.21 nM	4.79 nM	0.28 nM	< 0.21 nM	–	–	–	–	6288 (antibody, V domains shown, anti-BACE1 IgG) VH: QLQLQESGPGLVKPSETLSLTCTVSGGSTSSSSYYWGWIRQPPGKGLEWIGSIYRSGSTYYNPSLRSRVTISVDTSKNQFSLKLSSVTAADTAVYYCARVGHGISYFDLWGRGTLVTVSS VL: EIVLTQSPATLSLSPGERATLSCRASQSVSSYLAWYQQKPGQAPRLLIYDASNRATGIPARFSGSGSGTDFTLTISSLEPEDFAVYYCQQSLTWPPRTFGGGTKVEIK
0.88 nM	75%	< 0.28 nM	< 0.28 nM	8.26 nM	< 0.28 nM	< 0.28 nM	–	–	–	–	6293 (antibody, V domains shown, anti-BACE1 IgG) VH: QLQLQESGPGLVKPSETLSLTCTVSGGSISSSSYYWGWIRQPPGKGLEWIGMIYYSGSTWYNPSLRSRVTISVDTSKNQFSLKLSSVTAADTAVYYCARVGHGVSYFDLWGRGTLVTVSS VL: EIVLTQSPATLSLSPGERATLSCRASQSVSSYLAWYQQKPGQAPRLLIYDASKRATGIPARFSGSGSGTDFTLTISSLEPEDFAVYYCQQVYTWPPRTFGGGTKVEIK
3.89 nM	63%	< 0.26 nM	0.4 nM	3.87 nM	0.32 nM	0.28 nM	–	–	–	–	6297 (antibody, V domains shown, anti-BACE1 IgG) VH: QLQLQESGPGLVKPSETLSLTCTVSGGPISSSSYYWGWIRQPPGKGLEWIGNIYYSGSTYYNPSLRGRVTISVDTSKNQFSLKLSSVTAADTAVYYCARLGHGYNYFDLWGRGTLVTVSS VL: EIVLTQSPATLSLSPGERATLSCRASQSVSSYLAWFQQKPGQAPRLLIYDASNRATGIPARFSGSGSGTDFTLTISSLEPEDFAVYYCQQVYVWPPRTFGGGTKVEIK
7.92 nM	62%	< 0.24 nM	0.28 nM	3.29 nM	< 0.24 nM	0.2 nM	–	–	–	–	6296 (antibody, V domains shown, anti-BACE1 IgG) VH: QLQLQESGPGLVKPSETLSLTCTVSGGSISSSSYYWGWIRQPPGKGLEWIGNIYYSGSTYYNPSLRGRVTISVDTSKNQFSLKLSSVTAADTAVYYCARLGHGYNYFDLWGRGTLVTVSS VL: EIVLTQSPATLSLSPGERATLSCRASQSVSSYLAWFQQKPGQAPRLLIYDASNRATGIPARFSGSGSGTDFTLTISSLEPEDFAVYYCQQVYVWPPRTFGGGTKVEIK
5.21 nM	74%	0.28 nM	0.37 nM	7.37 nM	0.38 nM	0.39 nM	–	–	–	–	6289 (antibody, V domains shown, anti-BACE1 IgG) VH: QLQLQESGPGLVKPSETLSLTCTVSGGSISSSSYYWGWIRQPPGKGLEWIGSIYRSGSTYYNPSLRSRVTISVDTSKNQFSLKLSSVTAADTAVYYCVRVGHGISYFDLWGRGTLVTVSS VL: EIVLTQSPATLSLSPGERATLSCRASQSVSSYLAWYQQKPGQAPRLLIYDASNRATGIPARFSGSGSGTDFTLTISSLEPEDFAVYYCQQSLTWPPRTFGGGTKVEIK
3.17 nM	63%	< 0.27 nM	< 0.26 nM	3.19 nM	< 0.27 nM	< 0.23 nM	–	–	–	–	6290 (antibody, V domains shown, anti-BACE1 IgG) VH: QLQLQESGPGLVKPSETLSLTCTVSGGSISSSSYYWGWIRQPPGKGLEWIGMIYYSGSTWYNPSLKSRVTISVDTSKNQFSLKLSSVTAADTAVYYCARVGLGVSYFDLWGRGTLVTVSS VL: EIVLTQSPATLSLSPGERATLSCRASQSVSSYLAWYQQKPGQAPRLLIYDASKRATGIPARFSGSGSGTDFTLTISSLEPEDFAVYYCQQVYTWPPRTFGGGTKVEIK
